Source: patent US8394929B2, “Nogo receptor-mediated blockade of axonal growth” (Yale University, priority 2000, dated 2013)

Assays:
[1] = tested on: chick dorsal root ganglion neurons; assay: Neurite outgrowth assay in chick DRG neurons; format: cell-based
Protocol: (§1) For all experiments involving cell culture, the following methods were employed. The culture of embryonic chick E10 and E12 dorsal root ganglion explants and dissociated neurons utilized methods described for E7 dorsal root ganglion cultures (Takahashi et al., (1998) Nature Neurosci. 1, 487-493; Takahashi et al., (1999) Cell 99, 59-69; Goshima et al., (1995) Nature 376, 509-514; Jin & Strittmatter, (1997) J. Neurosci. […]). NGF-differentiated PC12 cells were cultured as described (Strittmatter et al., (1994) J. Neurosci. 14, 2327-2338). Embryonic spinal cord explants (rat E10 or chick E5) were cultured for 7-14 days in the presence of PDGF-AA to induce differentiation of some cells into mature oligodendrocytes (Vartanian et al., (1999) Proc. Natl. Acad. Sci. USA 96, 731-735). The procedure for growth cone collapse assays is identical to that for analysis of Sema3A-induced growth cone collapse (Takahashi et al., (1998) Nature Neurosci. 1, 487-493; Takahashi et al., (1999) Cell 99, 59-69; Goshima et al., (1995) Nature 376, 509-514; Jin & Strittmatter, (1997) J. Neurosci. 17, 6256-6263). The method for analysis of total neurite outgrowth has also been described (Goshima et al., (1995) Nature 376, 509-514; Jin & Strittmatter, (1997) J. Neurosci. 17, 6256-6263; Strittmatter et al., (1994) J. Neurosci. 14, 2327-2338). In outgrowth assays, proteins and peptides were added one hour after plating to minimize any effect on the total number of adherent cells. To test the effect of substrate-bound GST or GST-Nogo, the protein solutions were dried on poly-L-lysine coated glass, washed and then coated with laminin. For E12 cultures, the neuronal identity of cells was verified by staining with anti-neurofilament antibodies (2H3, Develomental Studies Hybridoma Bank) and neurites were traced by observation of rhodamine-phalloidin staining of F-actin in processes.
For neurite outgrowth assays, plastic chamber slides were coated with 100 μg ml^−1 poly-L-lysine, washed, and dried. 3 μl drops of PBS containing GST-Nogo-66 were spotted and dried. Slides were then rinsed and coated with 10 μg ml fs24^−1 laminin before addition of dissociated E12 chick DRGs. AP-fusion proteins were added at the time of cell plating. Cultures were grown for 5-7 h after which neurite outgrowth was assessed.

[2] = tested on: chick E12 dorsal root ganglion growth cones; assay: Growth cone collapse assay in chick dorsal root ganglion explants; format: cell-based; details: soluble form at 100 nM; chick E12 DRG
Protocol: as §1
The expression of recombinant Nogo in HEK293T cells allows a rigorous test of whether this protein has axon outgrowth inhibiting effects. Washed membrane fractions from vector- or hNogo-A-Myc-transfected HEK293T cells were added to chick E12 dorsal root ganglion explant cultures. Growth cone morphology was assessed after a thirty minute incubation at 37° C. by fixation and rhodamine-phalloidin staining.
Briefly, for growth cone collapse, DRG explants were plated on plastic chamber slides precoated with 100 μg ml^−1 poly-L-lysine and 10 μg ml^−1 laminin. Cultures were grown 14-16 h prior to treatment.

COS-7 cells = assay: COS-7 cell spreading; format: cell-based
Protocol: (§2) (a) is a schematic diagram which summarizes features of the Nogo proteins utilized in this study. (b) is a photograph of NIH-3T3 fibroblasts cultured on surfaces coated with Amino-Nogo, GST-Nogo-66 or no protein and stained for filamentous actin (scale bar, 40 μm). (c) is a photograph of chick E12 dorsal root ganglions cultured on surfaces coated with Amino-Nogo, GST-Nogo-66 or no protein (substrate-bound) or with 100 nM Nogo protein (soluble) (scale bar, 40 μm). […] (e) is a graph displaying experimental data where the percentage of 3T3 fibroblasts with an area greater than 1200 μm^2 (spread) was measured from experiments as in (b) on Nogo-coated surfaces (black) or with soluble 100 nM Nogo preparations (blue) (AM, Amino-Nogo; AM+Myc, Amino-Nogo preincubated with anti-Myc antibody; AM+Myc+Mo, AM+Myc preincubated with anti-mouse IgG antibody; Myc+Mo, anti-Myc antibody plus anti-murine IgG antibody). (f) is a graph displaying experimental data where the percentage of spread COS-7 cells was determined after culture on Nogo-coated surfaces or with soluble 100 nM Nogo preparations. (g) is a graph displaying experimental data where the effects of purified preparations of GST-Nogo-66 or Amino-Nogo on growth cone morphology was assessed in E12 dorsal root ganglion cultures at the indicated concentrations after thirty minutes. […]

3T3 fibroblasts = assay: 3T3 fibroblast spreading; format: cell-based, mouse
Protocol: (a) is a schematic diagram which summarizes features of the Nogo proteins utilized in this study. (b) is a photograph of NIH-3T3 fibroblasts cultured on surfaces coated with Amino-Nogo, GST-Nogo-66 or no protein and stained for filamentous actin (scale bar, 40 μm). (c) is a photograph of chick E12 dorsal root ganglions cultured on surfaces coated with Amino-Nogo, GST-Nogo-66 or no protein (substrate-bound) or with 100 nM Nogo protein (soluble) (scale bar, 40 μm). (d) is a photograph of a gel and an immunoblot where purified Amino-Nogo-Myc-His protein was subjected to SDS-PAGE and stained with Commassie Brilliant Blue (CBB) or immunoblotted with anti-Myc antibodies (Myc) (molecular weight markers of 200, 116, 97, 65 & 45 kDa are at left). (e) is a graph displaying experimental data where the percentage of 3T3 fibroblasts with an area greater than 1200 μm^2 (spread) was measured from experiments as in (b) on Nogo-coated surfaces (black) or with soluble 100 nM Nogo preparations (blue) (AM, Amino-Nogo; AM+Myc, Amino-Nogo preincubated with anti-Myc antibody; AM+Myc+Mo, AM+Myc preincubated with anti-mouse IgG antibody; Myc+Mo, anti-Myc antibody plus anti-murine IgG antibody). (f) is a graph displaying experimental data where the percentage of spread COS-7 cells was determined after culture on Nogo-coated surfaces or with soluble 100 nM Nogo preparations. (g) is a graph displaying experimental data where the effects of purified preparations of GST-Nogo-66 or Amino-Nogo on growth cone morphology was assessed in E12 dorsal root ganglion cultures at the indicated concentrations after thirty minutes. […] (h) is a graph displaying experimental data where the neurite outgrowth per cell in […] dorsal root ganglion cultures was quantitated from experiments as in (c) on Nogo-coated surfaces or with soluble 100 nM Nogo preparations. (i) is a graph displaying experimental data where the effects of Nogo preparations on neurite outgrowth in cerebellar granule neurons was measured.
Assays of Nogo-A function have included growth cone collapse, neurite outgrowth, and fibroblast spreading with substrate-bound and soluble protein preparations (Caroni & Schwab, (1988) J. Cell Biol. 106, 1281-1288; GrandPré et al., (2000) Nature 403, 439-444; Chen et al., (2000) Nature 403, 434-439; Prinjha et al., (2000) Nature 403, 483-484). […] Since NI250 preparations and full length Nogo-A are non-permissive for 3T3 spreading, it was necessary to consider whether different domains of Nogo might subserve this in vitro activity. To facilitate a comparison of different Nogo-A domains, the acidic amino terminal 1040 amino acid fragment (Amino-Nogo) was expressed as a Myc-his tagged protein in HEK293T cells (FIG. 1d). The Nogo protein is present in cytosolic fractions. […]

[3] = tested on: Mouse P4 cerebellar granule neurons; assay: Cerebellar granule neuron axon outgrowth; format: cell-based
Protocol: as §2

[4] = substrate-bound / coated surfaces
[5] = dimerized with anti-Myc antibody

B1: Amino-Nogo: acidic amino terminal 1040 amino acid fragment of Nogo-A expressed as a Myc-his tagged protein in HEK293T cells (protein, UniProt Q9NQC3 1-1040, looked up, fragment)
chain: MEDLDQSPLVSSSDSPPRPQPAFKYQFVREPEDEEEEEEEEEEDEDEDLEELEVLERKPAAGLSAAPVPTAPAAGAPLMDFGNDFVPPAPRGPLPAAPPVAPERQPSWDPSPVSSTVPAPSPLSAAAVSPSKLPEDDEPPARPPPPPPASVSPQAEPVWTPPAPAPAAPPSTPAAPKRRGSSGSVDETLFALPAASEPVIRSSAENMDLKEQPGNTISAGQEDFPSVLLETAASLPSLSPLSAASFKEHEYLGNLSTVLPTEGTLQENVSEASKEVSEKAKTLLIDRDLTEFSELEYSEMGSSFSVSPKAESAVIVANPREEIIVKNKDEEEKLVSNNILHNQQELPTALTKLVKEDEVVSSEKAKDSFNEKRVAVEAPMREEYADFKPFERVWEVKDSKEDSDMLAAGGKIESNLESKVDKKCFADSLEQTNHEKDSESSNDDTSFPSTPEGIKDRSGAYITCAPFNPAATESIATNIFPLLGDPTSENKTDEKKIEEKKAQIVTEKNTSTKTSNPFLVAAQDSETDYVTTDNLTKVTEEVVANMPEGLTPDLVQEACESELNEVTGTKIAYETKMDLVQTSEVMQESLYPAAQLCPSFEESEATPSPVLPDIVMEAPLNSAVPSAGASVIQPSSSPLEASSVNYESIKHEPENPPPYEEAMSVSLKKVSGIKEEIKEPENINAALQETEAPYISIACDLIKETKLSAEPAPDFSDYSEMAKVEQPVPDHSELVEDSSPDSEPVDLFSDDSIPDVPQKQDETVMLVKESLTETSFESMIEYENKEKLSALPPEGGKPYLESFKLSLDNTKDTLLPDEVSTLSKKEKIPLQMEELSTAVYSNDDLFISKEAQIRETETFSDSSPIEIIDEFPTLISSKTDSFSKLAREYTDLEVSHKSEIANAPDGAGSLPCTELPHDLSLKNIQPKVEEKISFSDDFSKNGSATSKVLLLPPDVSALATQAEIESIVKPKVLVKEAEKKLPSDTEKEDRSPSAIFSAELSKTSVVDLLYWRDIKKTGVVFGASLFLLLSLTVFSIVSVT
modifications: Myc-His tag
notes: acidic amino terminal 1040 amino acid fragment of Nogo-A expressed as a Myc-his tagged protein in HEK293T cells
- dorsal root ganglion axon outgrowth (in words) ([1]; Amino-Nogo with anti-Myc antibody, further aggregated by anti-Mouse IgG antibody): significantly reduces
- neurite/axon outgrowth (in words) ([1]; soluble protein or peptide added to culture): does not significantly modulate
- neurite/axon outgrowth (in words) [1, 4]: axonal outgrowth is reduced to low levels
- growth cone morphology (in words) [2]: does not significantly modulate
- COS-7 spreading (in words) (COS-7 cells; [5]): inhibits
- non-neuronal cell spreading (in words) (COS-7 cells; soluble, 100 nM): does not significantly modulate
- 3T3 spreading (in words) (3T3 fibroblasts; [5]): inhibits
- non-neuronal cell spreading (in words) (3T3 fibroblasts; soluble, 100 nM): does not significantly modulate
- 3T3 fibroblast spreading (in words) (3T3 fibroblasts; [4]): fail to support 3T3 fibroblast spreading
- cerebellar axon outgrowth (in words) [3, 5]: tends to reduce cerebellar axon outgrowth
- cerebellar axon outgrowth (in words) ([3]; further aggregated by anti-Mouse IgG antibody): significantly reduces
